Results on one protein are retold here after patent US20060292657A1, “Phex substrates and methods using same” (priority 2003, published 2006).

Assay in all cases: Kinetic parameters for hydrolysis of internally quenched fluorogenic peptides by secPHEX
Holding throughout (format): biochemical, human

Substrate in data set [1]: C[C@H](NC(=O)[C@H](CCC(N)=O)NC(=O)[C@H](CO)NC(=O)[C@H](CC(=O)O)NC(=O)[C@H](CCCNC(=N)N)NC(=O)[C@H](CCC(N)=O)NC(=O)[C@@H]1CCCN1C(=O)CNC(=O)c1ccccc1N)C(=O)N[C@@H](CCC(N)=O)C(=O)NCCNc1ccc([N+](=O)[O-])cc1[N+](=O)[O-]
The settings on record: other: 37° C., 10 mM Bis-Tris buffer pH 5.5, 150 mM NaCl. The method, then:
(§1) The human recombinant secPHEX was obtained following the procedure previously described (17, WO 00/50580). Purified secPHEX concentration was determined using the Bradford method (DC protein assay kit; Bio-Rad, Mississauga, ON, Canada). Membrane-bound recombinant human PHEX was expressed in LLC-PK1 cells (17, (WO 00/50580)) and membranes were prepared essentially as described by Guo et al. (34). Briefly, transfected cells resuspended in lysis buffer (150 mM NaCl, 20 mM Tris.HCl, pH 7.6) were disrupted by sonication. Cell debris were removed by centrifugation at 300 g for 15 min at 4 °C. Membranes were collected by centrifugation at 30,000 g for 50 min and solubilized for 2h with 1% n-dodecyl-β-D-maltoside in lysis buffer. Insoluble material was pelleted by centrifugation at 10,000 g for 15 min and protein concentrations of the supernatant determined using the Bradford method described above. PHEX amounts were evaluated by immunoblotting as described previously (17). NEP expression and purification were performed as described previously (36).
(§2) The hydrolysis of the IQFPs, at 37° C., in 10 mM Bit-Tris buffer pH 5.5 (0.35 to 1.0 ml final volume) containing 150 mM NaCl, was continuously followed measuring the fluorescence at γem=420 nm and γex=320 nm in a Hitachi F-2000™ spectrofluorometer. The cuvefte containing the buffer and the substrate was placed in a thermostatically controlled cell compartment for 5 min before the addition of the enzyme and the increase in fluorescence with time was continuously recorded for 5-10 min. The enzyme concentration for initial rate determination was chosen at a level intended to hydrolyze less than 5% of the substrate present. The slope was converted into micromoles of substrate hydrolyzed per min based on a calibration curve obtained from complete hydrolysis of each peptide. The inner-filter effect was corrected using an empirical equation as previously described (43). The kinetic parameters Km and kcat were calculated by the non-linear regression data analysis Grafit program (42). The kcat/Km values were calculated as the ratio of these two determined parameters. The apparent second order rate constant kcat/Km (*kIt/Km) was determined under pseudo first-order conditions, where [S]<<Km. These determinations were performed in two different substrate concentrations and the errors were less than 5% for any obtained value.
(§3) To determine the position of cleavage in peptides of the IQFPs combinatorial libraries, the products resulting from hydrolysis by secPHEX were submitted to N-terminal amino acid sequencing in a PPSQ-23protein sequencer (Shimadzu Tokyo, Japan). The scissile bonds in the IQFPs secPHEX substrates derived from PTHrP107-139, FGF-23and MEPE were determined by amino acid sequencing and by MALDI-TOF™ mass spectrometry (TofSpec-E™, Micromass, Manchester, U.K.) after isolation of the fragments resulting from the hydrolysis by secPHEX by analytical HPLC.
(§4) The assays were performed at 37° C., in 10 mM Bis-Tris buffer pH 5.5, containing 150 mM NaCl. Measurements were made as described under the heading “Experimental Procedures” above. Cleavage sites are indicated as arrows (↓). The standard deviations of the kinetic constants were less than 5%.
(§5) The assays were performed at 37° C., in 10 mM Bis-Tris buffer pH 5.5, containing 150 mM NaCl. Measurements were made as described under the heading “Experimental Procedures” above. Cleavage sites are indicated by arrows (↓). The standard deviations of the kinetic constants were less than 5%.
(§6) The assays were. performed at 37° C., in 10 mM Bis-Tris buffer pH 5.5, containing 150 mM NaCl. Measurements were made as described under the heading “Experimental Procedures” above. Cleavage sites are indicated by arrows (↓). The standard deviations of the kinetic constants were less than 5%.
(§7) The assays were performed at 37° C., in 10 mM Bis-Tris buffer pH 5.5, containing 150 mM NaCl. Measurements were made as described under “Experimental Procedures”. […]

Substrate in data set [2]: CC(C)[C@H](NC(=O)[C@H](CC(=O)O)NC(=O)[C@H](Cc1ccc(O)cc1)NC(=O)CNC(=O)[C@H](CC(N)=O)NC(=O)c1ccccc1N)C(=O)N[C@@H](Cc1ccc(O)cc1)C(=O)N[C@@H](Cc1c[nH]cn1)C(=O)N[C@@H](CCC(N)=O)C(=O)NCCNc1ccc([N+](=O)[O-])cc1[N+](=O)[O-]
The settings on record: other: 37° C., 10 mM Bis-Tris buffer pH 5.5, 150 mM NaCl. The method, then:
as §1, §2, §3, §4, §5, §6, §7

Substrate in data set [3]: Nc1ccccc1C(=O)NCC(=O)N[C@@H](Cc1ccccc1)C(=O)N[C@@H](CO)C(=O)N[C@@H](CCC(=O)O)C(=O)N[C@@H](Cc1ccc(O)cc1)C(=O)N[C@@H](CCCCNc1ccc([N+](=O)[O-])cc1[N+](=O)[O-])C(=O)O
The following applies: other: 37° C., 10 mM Bis-Tris buffer pH 5.5, 150 mM NaCl, [S]<<Km. As to the method:
as §1, §2, §3, §4, §5, §6, §7

Substrate in data set [4]: C[C@H](NC(=O)[C@H](C)NC(=O)[C@H](CC(=O)O)NC(=O)[C@H](CO)NC(=O)[C@H](CO)NC(=O)CNC(=O)c1ccccc1N)C(=O)N[C@@H](CCC(=O)O)C(=O)N[C@@H](CCC(N)=O)C(=O)NCCNc1ccc([N+](=O)[O-])cc1[N+](=O)[O-]
The following applies: other: 37° C., 10 mM Bis-Tris buffer pH 5.5, 150 mM NaCl. As to the method:
as §1, §2, §3, §4, §5, §6, §7

Substrate in data set [5]: CC(C)C[C@H](NC(=O)c1ccccc1N)C(=O)N[C@@H](CCC(=O)O)C(=O)N[C@@H](CC(C)C)C(=O)N[C@@H](CC(=O)O)C(=O)N[C@@H](CO)C(=O)N[C@@H](CCCNC(=N)N)C(=O)N[C@@H](CCC(N)=O)C(=O)NCCNc1ccc([N+](=O)[O-])cc1[N+](=O)[O-]
The following applies: other: 37° C., 10 mM Bis-Tris buffer pH 5.5, 150 mM NaCl. The method, then: as §1, §2, §3, §4, §5, §6, §7

Marks after values point to notes of the source that are not given here.

B1: human recombinant secPHEX (Homo sapiens) (protein)
chain: SLQAKQEYCLKPECIEAAAAILSKVNLSVDPCDNFFRFACDGWISNNPIPEDMPSYGVYPWLRHNVDLKLKELLEKSISRRRDTEAIQKAKILYSSCMNEKAIEKADAKPLLHILRHSPFRWPVLESNIGPEGVWSERKFSLLQTLATFRGQYSNSVFIRLYVSPDDKASNEHILKLDQATLSLAVREDYLDNSTEAKSYRDALYKFMVDTAVLLGANSSRAEHDMKSVLRLEIKIAEIMIPHENRTSEAMYNKMNISELSAMIPQFDWLGYIKKVIDTRLYPHLKDISPSENVVVRVPQYFKDLFRILGSERKKTIANYLVWRMVYSRIPNLSRRFQYRWLEFSRVIQGTTTLLPQWDKCVNFIESALPYVVGKMFVDVYFQEDKKEMMEELVEGVRWAFIDMLEKENEWMDAGTKRKAKEKARAVLAKVGYPEFIMNDTHVNEDLKAIKFSEADYFGNVLQTRKYLAQSDFFWLRKAVPKTEWFTNPTTVNAFYSASTNQIRFPAGELQKPFFWGTEYPRSLSYGAIGVIVGHEFTHGFDNNGRKYDKNGNLDPWWSTESEEKFKEKTKCMINQYSNYYWKKAGLNVKGKRTLGENIADNGGLREAFRAYRKWINDRRQGLEEPLLPGITFTNNQLFFLSYAHVRCNSYRPEAAREQVQIGAHSPPQFRVNGAISNFEEFQKAFNCPPNSTMNRGMDSCRLW
notes: pure soluble form of PHEX (secPHEX); made in house
For B1, the Km in data set [1] turned out to be 47.0 µM; in data set [2], 9.0 µM; in data set [4] it was 2.4 µM; in data set [5], 0.9 µM. Besides, the kcat stood at 0.2 s⁻¹ in data set [1], 0.01 s⁻¹ in data set [2], 0.3 s⁻¹ in data set [4] and 0.05 s⁻¹ in data set [5]. Further, the catalytic efficiency (kcat/Km) in data set [1] is 4300 M⁻¹ s⁻¹; in data set [2], 1100 M⁻¹ s⁻¹; in data set [3], 9.0* mM^−1 s^−1; in data set [4], 125000 M⁻¹ s⁻¹; in data set [5], 55500 M⁻¹ s⁻¹.

What is called Km is the concentration of substrate that gives half-maximal velocity. For orientation: kcat means the number of substrate molecules converted per active site and unit of time at saturation. What is called kcat/Km is the turnover number divided by the Michaelis constant.
